From publication PMC10119399, “Insights to improve the activity of glycosyl phosphorylases from Ruminococcus albus 8 with cello-oligosaccharides” (Frontiers in Chemistry, 2023) come the findings set out here.

In data set [1] the test system is T1, RalCDP-CBM37.
T1 construct: CBM37 of R. albus 8 Cel5G fused by glycine linker (Gly X9) to C-terminus of full-length RalCDP in one polypeptide; His-tag kept; E. coli BL21 (DE3); homodimer
As to the kind of experiment: glucose release, glucose oxidase-peroxidase, Michaelis-Menten fit. Format: biochemical, Hominimerdicola alba. To be noted: phosphorolysis direction; Pi as co-substrate; 50 mM sodium acetate pH 6.0, 45°C; read-out: K M (mM) (mg/mL).

For data set [2], the system named is T1, RalCDP-CBM37. Nature of the data set: arsenolysis, glucose release, glucose oxidase-peroxidase, Michaelis-Menten fit. It counts as biochemical, Hominimerdicola alba. To be noted: phosphorolysis direction measured as arsenolysis; arsenate as co-substrate; 50 mM sodium acetate pH 6.0, 45°C; read-out: K M (mM) (mg/mL).
Data set [3] addresses RalCDP-CBM37, RalCDP fused at its C-terminus to CBM37 of R. albus 8 Cel5G by a glycine linker (Ruminococcus albus 8). As to the kind of experiment: SEC; Superdex 200 10/300 in Buffer G (50 mM HEPES-NaOH pH 8.0, 100 mM NaCl, 0.1 mM EDTA); native mass from a calibration curve of standard proteins. On the technique in general: SEC sorts molecules by how far they enter the pores of the column.

For data set [4], the target named is Ral∆N63CDP-CBM37, Ral∆N63CDP fused at its C-terminus to CBM37 of R. albus 8 Cel5G by a glycine linker (Ruminococcus albus 8). The data set is described as above.
The target of data set [5] is Ruminococcus albus 8 cellobiose phosphorylase (RalCBP) (Ruminococcus albus 8). The data set is described as above.
The target in data set [6] is Ruminococcus albus 8 cellodextrin phosphorylase (RalCDP) (Ruminococcus albus 8). The data set is described as above.
Substrate in the data set “purified protein”: O=P(O)(O)O
Nature of the data set: purified protein. To be noted: phosphorolysis direction, co-substrate cellobiose, 50 mM sodium acetate pH 6.0, 45°C.

Substrate in data set [7]: O=P(O)(O)O[C@H]1O[C@H](CO)[C@@H](O)[C@H](O)[C@H]1O
Nature of the data set: Pi release, Malachite Green, Michaelis-Menten fit. Format: biochemical, Hominimerdicola alba. To be noted: synthesis direction (donor), co-substrate glucose, 100 mM sodium acetate pH 6.0, 45°C. The text has this:
Pi release, Malachite Green, Michaelis-Menten fit on RalCBP

On to `OC[C@H]1O[C@@H](O[C@H]2[C@H](O)[C@@H](O)C(O)O[C@@H]2CO)[C@H](O)[C@@H](O)[C@@H]1O` (some centres unmarked) [Cellobiose], for which, in the data set on RalCDP-CBM37 [1], the Km was 11 ± 2 mM.
For the molecule `OC[C@H]1O[C@@H](O[C@H]2[C@H](O)[C@@H](O)[C@H](O[C@H]3[C@H](O)[C@@H](O)[C@H](O[C@H]4[C@H](O)[C@@H](O)[C@H](O[C@H]5[C@H](O)[C@@H](O)C(O)O[C@@H]5CO)O[C@@H]4CO)O[C@@H]3CO)O[C@@H]2CO)[C@H](O)[C@@H](O)[C@@H]1O` (some centres unmarked) [Cellopentaose], the Km in the data set on RalCDP-CBM37 [2] amounted to 0.14 ± 0.03 mM.
With `OC[C@H]1O[C@@H](O[C@H]2[C@H](O)[C@@H](O)[C@H](O[C@H]3[C@H](O)[C@@H](O)[C@H](O[C@H]4[C@H](O)[C@@H](O)C(O)O[C@@H]4CO)O[C@@H]3CO)O[C@@H]2CO)[C@H](O)[C@@H](O)[C@@H]1O` (some centres unmarked) [Cellotetraose], the Km with RalCDP-CBM37 [2] amounted to 0.24 ± 0.06 mM.
As to `OC[C@H]1O[C@@H](O[C@H]2[C@H](O)[C@@H](O)[C@H](O[C@H]3[C@H](O)[C@@H](O)C(O)O[C@@H]3CO)O[C@@H]2CO)[C@H](O)[C@@H](O)[C@@H]1O` (some centres unmarked) [Cellotriose], the Km in the data set on RalCDP-CBM37 [2] was 2.2 ± 0.3 mM.
By stoichiometry N is commonly meant the number of molecules, sites or subunits per partner or assembly. In turn, “RalCDP-CBM37, RalCDP fused at its C-terminus to CBM37 of R. albus 8 Cel5G by a glycine linker (enzyme)” registered a stoichiometry N in data set [3] of 2.
“Ral∆N63CDP-CBM37, Ral∆N63CDP fused at its C-terminus to CBM37 of R. albus 8 Cel5G by a glycine linker (enzyme)” registered a stoichiometry N in data set [4] of 5.
“Ruminococcus albus 8 cellobiose phosphorylase (RalCBP) (enzyme)”: the stoichiometry N in data set [5] was determined as 2.
“Ruminococcus albus 8 cellodextrin phosphorylase (RalCDP) (enzyme)” returned a stoichiometry N in data set [6] of 2.

B1: RalCBP (Hominimerdicola alba 8) (protein)
chain: MKFGFFDDANKEYVITEPRTPYPWINYLGSQAFFSLISNTAGGYSFYKDARLRRITRYRYNNVPIDMGGRYFYINDNGTVWNPGWSPVKTELDAYTCRHGMGYTIIKGEKNGLEAEVTFFVPNNYNGEVQKVVLTNKSGAEKTFKLFSFAEWCLWDAQDDCTNFQRNFSTGRVEVDGSVIYHKTEYRDRRDHYAFYSVNDSIDGYDTDRDSFIGLYNGFNDPQAVMAGKANDSFADGWSPIASHYKEIKLGAGESKTLIFILGYVEMPVDQKFEADGKTINKVKAKAMMEQFDTPEKVDAGLAELKASWDKLLGILNVDTPDDKVDRMVNIWNQYQCMVTFNLSRSASYFESGIGRGMGFRDSNQDILGFVHQIPDRARERIIDIASTQLPDGGCYHQYQPLTKKGNSDIGGDFSDDPLWMILSVSAYIKETGDWGILDEMVPYDNDESKAQPMLDHLKVSFYHIVNNLGPHGLPLAMRADWNDCINLSCYSDTPGESFQTYTNPKFAAEGGYSKVAESVMVATLFTYTGPNYVAILKHLGKDDEAAAAQAEIDKMKKNVMASAWDGDWFLRAYDSEGKKMGSKECEEGQIFIEPQGFAIMSEIGKEQGADKKTLAAIDERLNTKFGLVLNNPAFTKYYIQYGEISTYPGGYKENAGIFTHNNAWIICAAAYAGQGDQAFKYYSEIAPAFTEETSDIHKTEPYVYGQMIGGKDAGSDIGRPGKNFGQGKNSWLTGTAAWNMVAISQYILGVQPDFDGLKIDPSIPAAWDGFNITRKFRGNTYNIAVKNPDHVCKGIKSVTVDGKKIDGIVMPVFEAGSVHEVEVVMG
notes: full length, His6-tag kept (methods: N-terminus; results: C-terminal), codon-optimized, E. coli BL21 (DE3); homodimer 180 kDa
Usually kcat stands for the maximal rate divided by the concentration of active sites. In general, kcat/Km refers to the turnover number divided by the Michaelis constant. Turning to B1, in “purified protein”, the Km is 580 ± 20 µM, the kcat stood at 284 s⁻¹ and the kcat/Km was 490000 M⁻¹ s⁻¹. In data set [7], the Km was 2000 ± 200 µM, the kcat was 178 ± 2 s⁻¹ and the kcat/Km was 89000 M⁻¹ s⁻¹.
